Measured values reported in patent US20260102505A1, “ANTI-CD45-IGN ANTIBODY DRUG CONJUGATES AND USES THEREOF” (Vor Biopharma Inc., priority 2022, published 2026).

B1: AbB: humanized and affinity matured anti-CD45 antibody, VH SEQ ID NO:81, VL SEQ ID NO:85 (antibody, V domains shown)
VH: EVQLVESGGGLVQPGGSLRLSCAASGFTFTNFWMAWIRQAPGKGLEWVASISSSGGSIYYPDSVKDRFTISRDNSKNTLYLQMNSLRAEDTAVYYCVKFHHYSGGGDAWGQGTLVTVSS
VL: DIQMTQSPSSLSASVGDRVTITCKASQNINKYLDWYQQKPGKAPKLLIHYTNNLHTGIPSRFSGSGSGTDYTLTISSLQPEDFATYYCLQHSSRWTFGGGTKVEIK
B2: AbC: humanized and affinity matured anti-CD45 antibody, VH SEQ ID NO:91, VL SEQ ID NO:95 (antibody, V domains shown)
VH: EVQLVESGGGLVQPGGSLRLSCAASGFTFNNYWMTWVRQAPGKGLEWVSSISSSGGSIYYPDSVKDRFTISRDNAKNSLYLQMNSLRAEDMAVYYCARLYYYDGGGDAWGQGTLVTVSS
VL: GIQMTQSPSSLSASVGDRVTITCKASQDINKYLDWYQQKPGKAPKLLIYNTNNLHTGIPSRFSGSGSGTDYTLTISSLQPEDFATYYCLQHISRWTFGGGTKVEIK
B3: AbA: humanized and affinity matured anti-CD45 antibody, VH SEQ ID NO:71, VL SEQ ID NO:75 (antibody, V domains shown)
VH: EVQLLESGGGLVQPGGSLRLSCAASGFTFNNYWMTWVRQAPGKGLEWVSSISSSGGSIYYPDRVKGRFTISRDNSKNTLYLQMNSLRAEDTAVYYCARDERWAGAMDAWGQGTTVTVSS
VL: DIQMTQSPSSLSASVGDRVTITCKASQNINKNLDWYQQKPGKAPKLLIYETNNLQTGVPSRFSGSGSGTDFTLTISSLQPEDFATYYCYQHNSRFTFGQGTKLEIK
B4: Ab2: human anti-CD45 antibody, VH SEQ ID NO:11, VL SEQ ID NO:15 (antibody, V domains shown)
VH: EVQLVESGGGLVQPGGSLRLSCAASGFTFEAYSMNWVRQAPGKGLEWVSYISLSGATIHYADSVKGRFTISRDNAKNSLYLQMNSLRAEDTAVYYCARGGQYYYDSSDYGEVAFDIWGQGTMVTVSS
VL: DIVMTQSPLSLPVTPGEPASISCRSSQSLVSNGYNYLDWYLQKPGQSPQLLIYFGSSRASGVPDRFSGSGSGTDFTLKISRVEAEDVGVYYCMQRRRTPWSFGGGTKVEIK
B5: Ab4: human anti-CD45 antibody, VH SEQ ID NO:31, VL SEQ ID NO:35 (antibody, V domains shown)
VH: EVQLVESGGGLVQPGGSLRLSCAASGFTFEAYSMNWVRQAPGKGLEWVSYISLSGATIHYADSVKGRFTISRDNAKNSLYLQMNSLRAEDTAVYYCARGGQYYYTSSDYGEVAFDIWGQGTMVTVSS
VL: DIVMTQSPLSLPVTPGEPASISCRSSQSLVSNGYNYLDWYLQKPGQSPQLLIYFGSSRASGVPDRFSGSGSGTDFTLKISRVEAEDVGVYYCMQRRRTPWSFGGGTKVEIK
B6: Ab7: human anti-CD45 antibody, VH SEQ ID NO:61, VL SEQ ID NO:65 (antibody, V domains shown)
VH: QVQLVESGGGLVKPGGSLRLSCAASGFTFGGYSMNWVRQAPGKGLEWVSYISISGATITYADSVKGRFTISRDNAKNSLYLQMNSLRAEDTAVYYCARGGQYYYDSSDYGEVAFDIWGQGTMVTVSS
VL: DIVMTQSPLSLPVTPGEPASISCRSSQSLVSSGYNYLDWYLQKPGQSPQLLIYFGSSRASGVPDRFSGSGSGTDFTLKISRVEAEDVGVYYCMQRRRTPPFTFGGGTKVEIK
B7: Ab6: human anti-CD45 antibody, VH SEQ ID NO:51, VL SEQ ID NO:55 (antibody, V domains shown)
VH: EVQLVESGGGLVQPGGSLRLSCAASGFTFEAYSMNWVRQAPGKGLEWVSYISLSGATIHYADSVKGRFTISRDNAKNSLYLQMNSLRAEDTAVYYCARGGQYYYTSSDYGEVAFDIWGQGTLVTVSS
VL: DIVLTQSPLSLPVTPGEPASISCRSSQSLVSSGYNYLDWYLQKPGQSPQLLIYFGSSRASGVPDRFSGSGSGTDFTLKISRVEAEDVGVYYCMQRRRTPWSFGGGTKVEIK
B8: Ab3: human anti-CD45 antibody, VH SEQ ID NO:21, VL SEQ ID NO:25 (antibody, V domains shown)
VH: QVQLVESGGGLVKPGGSLRLSCAASGFTFGGYSMNWVRQAPGKGLEWVSYISISGATITYADSVKGRFTISRDNAKNSLYLQMNSLRAEDTAVYYCARGGQYYYDSSDYGEVAFDIWGQGTMVTVSS
VL: DIVMTQSPLSLPVTPGEPASISCRSSQSLVSNGYNYLDWYLQKPGQSPQLLIYFGSSRASGVPDRFSGSGSGTDFTLKISRVEAEDVGVYYCMQRRRTPPFTFGGGTKVEIK

These molecules were tested on human CD45, cyno CD45 and rhesus CD45 (assay: CD45 binding / species cross-reactivity of antibodies).
Parameters: species or system cynomolgus
In the case of B1, the “cross-reactivity with CD45 of species (in words)” value (“cross-reactivity with CD45” below) is reported as “cross reacts with human CD45, cyno CD45 and rhesus CD45”. For B2, the “cross-reactivity with CD45” value was “cross reacts with human CD45, cyno CD45 and rhesus CD45”. For B3, the “cross-reactivity with CD45” value was “cross reacts with human CD45, cyno CD45 and rhesus CD45”. In the case of B4, the “cross-reactivity with CD45” value is reported as “cross reacts with human CD45, cyno CD45 and rhesus CD45”. B5 was tested, and the “cross-reactivity with CD45” value was “cross reacts with human CD45, cyno CD45 and rhesus CD45”. In the case of B6, the “cross-reactivity with CD45” value is reported as “cross reacts with human CD45, cyno CD45 and rhesus CD45”. In the case of B7, the “cross-reactivity with CD45” value is reported as “cross reacts with human CD45, cyno CD45 and rhesus CD45”. For B8, the “cross-reactivity with CD45” value was “cross reacts with human CD45, cyno CD45 and rhesus CD45”.
